Data: FireProtDB (doi:10.1002/pro.5560060315)

Details: Saccharomyces cerevisiae (strain ATCC 204508 / S288c), CD
[1] = pH 3, Thermal, acetate 0.1 M, reversible: yes, structure 1YCC
[2] = pH 3.25, Thermal, acetate 0.1 M, reversible: yes, structure 1YCC
[3] = pH 3.5, Thermal, acetate 0.1 M, reversible: yes, structure 1YCC
[4] = pH 3.75, Thermal, acetate 0.1 M, reversible: yes, structure 1YCC
[5] = pH 4, Thermal, acetate 0.1 M, reversible: yes, structure 1YCC
[6] = pH 4.25, Thermal, acetate 0.1 M, reversible: yes, structure 1YCC
[7] = pH 4.5, Thermal, acetate 0.1 M, reversible: yes, structure 1YCC
[8] = pH 4.75, Thermal, acetate 0.1 M, reversible: yes, structure 1YCC
[9] = pH 5, Thermal, acetate 0.1 M, reversible: yes, structure 1YCC
[10] = pH 7.5, 25 °C, GdnHCl, Tris-HCl 20 mM, NaCl 40 mM, reversible: yes, structure 1YCC
[11] = pH 4.5, 25 °C, Thermal, acetate 0.1 M, reversible: yes, structure 1YCC
[12] = pH 3, Thermal, acetate 0.1 M, reversible: yes (50-75%), structure 1YCC
[13] = pH 5.25, Thermal, acetate 0.1 M, reversible: yes, structure 1YCC
[14] = pH 3, Thermal, acetate 0.1 M, reversible: yes (50-75%)
[15] = pH 3.25, Thermal, acetate 0.1 M, reversible: yes (50-75%)
[16] = pH 3.5, Thermal, acetate 0.1 M, reversible: yes
[17] = pH 3.75, Thermal, acetate 0.1 M, reversible: yes
[18] = pH 4, Thermal, acetate 0.1 M, reversible: yes
[19] = pH 4.25, Thermal, acetate 0.1 M, reversible: yes
[20] = pH 4.5, 25 °C, Thermal, acetate 0.1 M, reversible: yes
[21] = pH 4.5, Thermal, acetate 0.1 M, reversible: yes
[22] = pH 4.75, Thermal, acetate 0.1 M, reversible: yes
[23] = pH 5, Thermal, acetate 0.1 M, reversible: yes
[24] = pH 7.5, 25 °C, GdnHCl, Tris-HCl 20 mM, NaCl 40 mM, reversible: yes

Chain of Cytochrome c isoform 1 wild type, P00044 (P00044 whole entry, canonical isoform): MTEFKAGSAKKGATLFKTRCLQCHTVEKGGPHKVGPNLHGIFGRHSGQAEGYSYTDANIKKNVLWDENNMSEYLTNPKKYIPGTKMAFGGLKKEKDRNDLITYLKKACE
Chain of Cytochrome c isoform 1 K79V, P00044 (P00044 whole entry K79V, canonical isoform): as the sequence (P00044 whole entry, canonical isoform) above, with K79V counted along it
Chain of Cytochrome c isoform 1 K79I, P00044 (P00044 whole entry K79I, canonical isoform): as the sequence (P00044 whole entry, canonical isoform) above, with K79I counted along it

## Cytochrome c isoform 1 K79I, P00044
[1]
  Tm: 22.3 °C
  change of melting temperature, mutant - wild type (higher = more stable): 0.8 °C
  unfolding enthalpy (van 't Hoff): 33 kcal/mol
[2]
  Tm: 26.7 °C
  change of melting temperature, mutant - wild type (higher = more stable): 4.1 °C
  unfolding enthalpy (van 't Hoff): 40.8 kcal/mol
[3]
  Tm: 31.7 °C
  change of melting temperature, mutant - wild type (higher = more stable): 1 °C
  unfolding enthalpy (van 't Hoff): 51.4 kcal/mol
[4]
  Tm: 35.5 °C
  change of melting temperature, mutant - wild type (higher = more stable): 0.6 °C
  unfolding enthalpy (van 't Hoff): 57.7 kcal/mol
[5]
  Tm: 38.7 °C
  change of melting temperature, mutant - wild type (higher = more stable): -2 °C
  unfolding enthalpy (van 't Hoff): 61.1 kcal/mol
[6]
  Tm: 41.3 °C
  change of melting temperature, mutant - wild type (higher = more stable): -1.8 °C
  unfolding enthalpy (van 't Hoff): 67.4 kcal/mol
[7]
  Tm: 45.2 °C
  change of melting temperature, mutant - wild type (higher = more stable): 0.2 °C
  unfolding enthalpy (van 't Hoff): 69.1 kcal/mol
[8]
  Tm: 46.9 °C
  change of melting temperature, mutant - wild type (higher = more stable): -1.7 °C
  unfolding enthalpy (van 't Hoff): 73.8 kcal/mol
[9]
  Tm: 47.7 °C
  change of melting temperature, mutant - wild type (higher = more stable): -5 °C
  unfolding enthalpy (van 't Hoff): 77.4 kcal/mol
[10]
  ddG of mutation (higher = less stable): 1.19 kcal/mol
  denaturant m value: 4.29 kcal/mol/M
  unfolding free energy: 4.47 kcal/mol

## Cytochrome c isoform 1 K79V, P00044
[1]
  Tm: 22.7 °C
  change of melting temperature, mutant - wild type (higher = more stable): 1.2 °C
  unfolding enthalpy (van 't Hoff): 37 kcal/mol
[2]
  Tm: 28.7 °C
  change of melting temperature, mutant - wild type (higher = more stable): 6.1 °C
  unfolding enthalpy (van 't Hoff): 46.3 kcal/mol
[3]
  Tm: 31.4 °C
  change of melting temperature, mutant - wild type (higher = more stable): 0.7 °C
  unfolding enthalpy (van 't Hoff): 47.3 kcal/mol
[4]
  Tm: 36.6 °C
  change of melting temperature, mutant - wild type (higher = more stable): 1.7 °C
  unfolding enthalpy (van 't Hoff): 58.5 kcal/mol
[5]
  Tm: 38.9 °C
  change of melting temperature, mutant - wild type (higher = more stable): -1.8 °C
  unfolding enthalpy (van 't Hoff): 60.2 kcal/mol
[6]
  Tm: 42.9 °C
  change of melting temperature, mutant - wild type (higher = more stable): -0.2 °C
  unfolding enthalpy (van 't Hoff): 64.8 kcal/mol
[11]
  ddG of mutation (higher = less stable): -0.1 kcal/mol
  heat capacity change of unfolding: 1.5 kcal/mol/K
  unfolding enthalpy (van 't Hoff): 40 kcal/mol
  unfolding free energy: 3.8 kcal/mol
[7]
  Tm: 46.7 °C
  change of melting temperature, mutant - wild type (higher = more stable): 1.7 °C
  unfolding enthalpy (van 't Hoff): 72.5 kcal/mol
[9]
  Tm: 49.5 °C
  change of melting temperature, mutant - wild type (higher = more stable): -3.2 °C
  unfolding enthalpy (van 't Hoff): 75.5 kcal/mol
[10]
  ddG of mutation (higher = less stable): 1.38 kcal/mol
  denaturant m value: 4.01 kcal/mol/M
  unfolding free energy: 4.28 kcal/mol

## Cytochrome c isoform 1 K79W, P00044
[12]
  Tm: 22.8 °C
  change of melting temperature, mutant - wild type (higher = more stable): 1.3 °C
  unfolding enthalpy (van 't Hoff): 43.5 kcal/mol
[2]
  Tm: 22.8 °C
  change of melting temperature, mutant - wild type (higher = more stable): 0.2 °C
  unfolding enthalpy (van 't Hoff): 49.8 kcal/mol
[3]
  Tm: 27.5 °C
  change of melting temperature, mutant - wild type (higher = more stable): -3.2 °C
  unfolding enthalpy (van 't Hoff): 50.5 kcal/mol
[4]
  Tm: 29.2 °C
  change of melting temperature, mutant - wild type (higher = more stable): -5.7 °C
  unfolding enthalpy (van 't Hoff): 58.6 kcal/mol
[6]
  Tm: 31.5 °C
  change of melting temperature, mutant - wild type (higher = more stable): -11.6 °C
  unfolding enthalpy (van 't Hoff): 68.5 kcal/mol
[11]
  ddG of mutation (higher = less stable): 1.6 kcal/mol
  heat capacity change of unfolding: 1.15 kcal/mol/K
  unfolding enthalpy (van 't Hoff): 51.4 kcal/mol
  unfolding free energy: 2.1 kcal/mol
[7]
  Tm: 36.1 °C
  change of melting temperature, mutant - wild type (higher = more stable): -8.9 °C
  unfolding enthalpy (van 't Hoff): 64.2 kcal/mol
[8]
  Tm: 39 °C
  change of melting temperature, mutant - wild type (higher = more stable): -9.6 °C
  unfolding enthalpy (van 't Hoff): 71.4 kcal/mol
[9]
  Tm: 47.6 °C
  change of melting temperature, mutant - wild type (higher = more stable): -5.1 °C
  unfolding enthalpy (van 't Hoff): 78 kcal/mol
[13]
  Tm: 49.3 °C
  unfolding enthalpy (van 't Hoff): 76.5 kcal/mol
[10]
  ddG of mutation (higher = less stable): 1.43 kcal/mol
  denaturant m value: 4.16 kcal/mol/M
  unfolding free energy: 4.23 kcal/mol

## Cytochrome c isoform 1 wild type, P00044
[14]
  Tm: 21.5 °C
  unfolding enthalpy (van 't Hoff): 39.6 kcal/mol
[15]
  Tm: 22.6 °C
  unfolding enthalpy (van 't Hoff): 42 kcal/mol
[16]
  Tm: 30.7 °C
  unfolding enthalpy (van 't Hoff): 54.2 kcal/mol
[17]
  Tm: 34.9 °C
  unfolding enthalpy (van 't Hoff): 62.3 kcal/mol
[18]
  Tm: 40.7 °C
  unfolding enthalpy (van 't Hoff): 69.8 kcal/mol
[19]
  Tm: 43.1 °C
  unfolding enthalpy (van 't Hoff): 73.7 kcal/mol
[20]
  heat capacity change of unfolding: 1.4 kcal/mol/K
  unfolding enthalpy (van 't Hoff): 45.4 kcal/mol
  unfolding free energy: 3.7 kcal/mol
[21]
  Tm: 45 °C
  unfolding enthalpy (van 't Hoff): 73.4 kcal/mol
[22]
  Tm: 48.6 °C
  unfolding enthalpy (van 't Hoff): 79.6 kcal/mol
[23]
  Tm: 52.7 °C
  unfolding enthalpy (van 't Hoff): 81.9 kcal/mol
[24]
  denaturant m value: 4.87 kcal/mol/M
  unfolding free energy: 5.66 kcal/mol
